Test [1] deals with T1, mST2-Fc fusion protein (unlabelled) (mouse, UniProt P14719 27-332).
T1 sequence: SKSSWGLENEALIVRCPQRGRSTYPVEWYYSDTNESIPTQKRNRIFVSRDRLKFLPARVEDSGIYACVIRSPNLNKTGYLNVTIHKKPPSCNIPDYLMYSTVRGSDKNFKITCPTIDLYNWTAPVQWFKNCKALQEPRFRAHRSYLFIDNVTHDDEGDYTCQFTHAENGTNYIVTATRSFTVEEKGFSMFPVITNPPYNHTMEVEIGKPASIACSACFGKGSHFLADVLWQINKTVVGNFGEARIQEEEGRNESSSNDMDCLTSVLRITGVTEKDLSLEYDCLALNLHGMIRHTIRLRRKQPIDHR
The test can be described thus: AlphaScreen or HTRF.

For test [2], the target named is T2, biotinylated mST2-Fc fusion protein (mouse, UniProt P14719 27-332, biotin (site not stated)).
T2 sequence: T1 sequence
Kind of test: AlphaScreen or HTRF.

B1: mouse interleukin-33 (mIL-33), amino acids 97-266, FLAG 10His tagged (ligand)
chain: SIQAFAASVDTLSIQGTSLLTQSPASLSTYNDQSVSFVLENGCYVINVDDSGKDQEQDQVLLRYYESPCPASQSGDGVDGKKLMVNMSPIKDTDIWLHANDKDYSVELQRGDVSPPEQAFFVLHKKSSDFVSFECKNLPGTYIGVKDNQLALVEEKDESCNNIMFKLSKI
As to B1, the binding result in test [1] and in test [2] was “binds” throughout.

(Values after publication PMC4622073 (mAbs, 2014).)
